Assays:
[1] = biological target: bovine brain farnesyl-protein transferase (bovine) (UniProt P29702)
[2] = biological target: human farnesyl-protein transferase, recombinant, expressed in E. coli from pRD516 with a C-terminal Glu-Glu-Phe epitope tag on the β subunit (human)

| Substance | IC50 value (nM), inhibition of farnesylation of Ras protein [1] [nM] | IC50 value (nM), inhibition of farnesylation of Ras protein [2] [nM] |
| --- | --- | --- |
| tetrapeptide CVIM (cysteinylvalinyl-isolleucinyl-methionine) | 100 | 100 |
| tetrapeptide CIFM (cysteinylisolleucinyl-phenylalaninyl-methionine) | 10 | 17 |
| tetrapeptide CVIL (cysteinylvalinyl-isolleucinyl-leucine) | 20000 | 6200 |

From patent US5821118
